# Measurements: US20030105024A1 (STATE OF OREGON, published 2003)
# No end group written: not given here.
# T1: human melanocortin 4 receptor (human, UniProt P32245 1-332)
# T1 chain: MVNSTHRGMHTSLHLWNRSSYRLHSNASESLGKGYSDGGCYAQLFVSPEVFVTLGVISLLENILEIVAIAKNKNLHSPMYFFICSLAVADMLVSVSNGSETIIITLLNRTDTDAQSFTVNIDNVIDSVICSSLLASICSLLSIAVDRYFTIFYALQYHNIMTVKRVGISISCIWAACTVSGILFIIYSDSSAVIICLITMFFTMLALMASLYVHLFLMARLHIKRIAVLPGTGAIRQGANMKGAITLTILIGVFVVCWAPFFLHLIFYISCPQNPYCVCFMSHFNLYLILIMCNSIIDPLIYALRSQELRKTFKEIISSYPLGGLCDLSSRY
# T2: mouse αMSH (MC-1) receptor (mouse) (UniProt Q01727)
# T2 sequence: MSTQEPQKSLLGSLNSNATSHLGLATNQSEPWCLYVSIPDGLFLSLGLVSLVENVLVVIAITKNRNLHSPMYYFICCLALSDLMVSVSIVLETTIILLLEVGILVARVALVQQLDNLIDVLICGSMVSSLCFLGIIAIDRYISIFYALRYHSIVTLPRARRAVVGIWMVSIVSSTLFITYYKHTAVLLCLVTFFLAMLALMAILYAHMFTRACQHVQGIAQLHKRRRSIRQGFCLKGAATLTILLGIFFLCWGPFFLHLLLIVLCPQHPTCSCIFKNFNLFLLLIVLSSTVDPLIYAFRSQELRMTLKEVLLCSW
# T3: murine agouti peptide (mouse, UniProt Q03288 23-131, limits assumed)
# T3 construct: Preparation was not homogeneous; also called endogenous mouse agouti peptide
# T3 sequence (looked up): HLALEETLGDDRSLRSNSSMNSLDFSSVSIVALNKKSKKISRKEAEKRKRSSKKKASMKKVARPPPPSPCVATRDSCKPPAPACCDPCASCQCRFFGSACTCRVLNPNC
# B1: rat melanocortin-3 receptor (receptor)
# chain: MNSSCCPSSSYPTLPNLSQHPAAPSASNRSGSGFCEQVFIKPEVFLALGIVSLMENILVILAVVRNGNLHSPMYFFLLSLLQADLLVSLSNSLETIMIVVINSDSLTLEDQFIQHMDNIFDSMICISLVASICNLLAIAVDRYVTIFYALRYHSIMTVRKALSLIVAIWVCCGICGVMFIVYSESKMVIVCLITMFFAMVLLMGTLYIHMFLFARLHVQRIAALPPADGLAPQQHSCMKGAVTITILLGVFIFCWAPFFLHLVLIITCPTNPYCICYTAHFNTYLVLIMCNSVIDPLIYAFRSLELRNTFKEILCGCNGMNVG
# notes: Stably expressed in human 293 cells from pcDNA/neo I; also called rat MC-3 receptor; rat MC3-R
# Experiments:
# [1] = target: B1; assay: cell-based or functional assay
# [2] = target: human MC-3 receptor (human) (UniProt P41968); assay: cell-based or functional assay
# Sequence of human MC-3 receptor (human) (P41968 whole entry): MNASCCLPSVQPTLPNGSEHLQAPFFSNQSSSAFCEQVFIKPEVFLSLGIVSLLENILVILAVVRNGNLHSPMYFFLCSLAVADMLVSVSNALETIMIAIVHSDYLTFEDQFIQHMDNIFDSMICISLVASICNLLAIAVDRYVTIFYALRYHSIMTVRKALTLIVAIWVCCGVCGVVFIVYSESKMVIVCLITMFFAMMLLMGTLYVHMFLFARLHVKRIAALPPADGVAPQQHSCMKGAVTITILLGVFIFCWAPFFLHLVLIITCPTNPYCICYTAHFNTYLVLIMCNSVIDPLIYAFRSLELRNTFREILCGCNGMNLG
# [3] = target: T1, human melanocortin 4 receptor; assay: cell-based or functional assay
# [4] = target: T2, mouse αMSH (MC-1) receptor (mouse); assay: cell-based or functional assay
# [5] = target: mouse MC-5 melanocortin receptor (mouse) (UniProt P41149); assay: cell-based or functional assay
# Sequence of mouse MC-5 melanocortin receptor (mouse) (P41149 whole entry): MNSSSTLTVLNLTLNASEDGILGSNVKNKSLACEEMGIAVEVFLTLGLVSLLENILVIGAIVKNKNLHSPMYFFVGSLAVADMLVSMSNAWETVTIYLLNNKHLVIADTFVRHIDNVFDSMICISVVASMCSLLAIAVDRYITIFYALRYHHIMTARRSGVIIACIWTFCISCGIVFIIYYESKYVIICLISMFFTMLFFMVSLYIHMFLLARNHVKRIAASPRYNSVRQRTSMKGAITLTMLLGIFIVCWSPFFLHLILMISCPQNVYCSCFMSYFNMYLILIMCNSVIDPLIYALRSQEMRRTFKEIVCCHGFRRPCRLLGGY
# [6] = target: B1; assay: competition with 125I-NDP-MSH on suspended 293 cells expressing rat MC-3 receptor
# [7] = target: T3, murine agouti peptide; assay: competition with 125I-[Nle^4, D-Phe^7]α-MSH on 293 cells expressing rat MC-3 receptor; results not shown
molecule,measurement,setting,value
desacetyl-αMSH (from UniProt P01189 138-150) (peptide),"Ec50, intracellular cAMP",[1],8 nM
"SHU9119, Ac-Nle^4-cyclo(Asp^5, D-Nal(2)^7, Lys^10) αMSH-(4-10)-amide (from UniProt P01189 141-147) (peptide)",pA2 (method of Schild),[2],8.3
γ2-MSH (from UniProt P01189 77-88) (peptide),"Ec50, intracellular cAMP",[1],3 nM
"Nle^4, D-Phe^7-αMSH (from UniProt P01189 138-150) (peptide)","Ec50, adenylate cyclase activity",[3],11 pM
same,"EC50, intracellular cAMP",[4],0.028 nM
βMSH (from UniProt P01189 217-234) (peptide),"EC50, adenylate cyclase / cAMP-dependent β-galactosidase",[5],5 nM
"YVMGHFRWDRF (peptide, UniProt P01189 77-87, looked up, ends and bridges not checked) [γ1-MSH]","Ec50, intracellular cAMP",[1],3 nM
"SYSMEHFRWGKPV (peptide, UniProt P01189 138-150, looked up, ends and bridges not checked, domain: αMSH; also called αMSH; α-MSH) [α-melanocyte stimulating hormone]",Ki,[6],~100 nM
same,"Ec50, intracellular cAMP",[1],4 nM
"MEHFRWG (peptide, UniProt P01189 141-147, looked up, domain: ACTH4-10) [ACTH4-10]","Ec50, adenylate cyclase activity",[3],> 100000 pM
same,"Ec50, intracellular cAMP",[1],100 nM
"SYSMEHFRWGKPVGKKRRPVKVYPNGAEDESAEAFPLEF (peptide, UniProt P01189 138-176, looked up) [adrenocorticotropic hormone]","Ec50, adenylate cyclase activity",[3],680 pM
same,"Ec50, intracellular cAMP",[1],4 nM
same,"EC50, intracellular cAMP",[4],8 nM
"YVMGHFRWDRFGRRNSSSSGSSGAGQ (peptide, UniProt P01189 77-102, looked up, ends and bridges not checked) [γ3-MSH]","Ec50, intracellular cAMP",[1],6 nM
B1,binding result,[7],binds
"YVMGHFRWDRFG (peptide, UniProt P01189 77-88, looked up, domain: γMSH; Printed without an index; also called γMSH; γ-MSH) [γ-melanocyte stimulating hormone]",Ki,[6],~50 nM
